# In the nanobody polyreactivity screen of Harvey et al. (2022):
# Experiment: yeast display, Sf9 membrane polyspecificity reagent, FACS + sequencing; frameworks hold sequencing errors
# Procedure, shortened: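 Genes from sorted yeast were amplified by colony PCR, read by MiSeq 2 × 250 sequencing and filtered on CDR length. These cells carried a synthetic nanobody library in Saccharomyces cerevisiae BJ5465 and were sorted by FACS into low and high (top ~1%) gates on anti-HA and streptavidin fluorescence. Polyreactivity is labelled according to the gate of origin.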
row,Sequence,polyreactivity (PSR sort gate)
1,QVQLVESGGGLVQAGGSLRLSCAASGFTFHRYAMGWYRQAPGKERELVAAISSRGGSTYYADSVKGRFTISRDNAKNTVYLQMNSLKPEDTAVYYCAARWPHRYYSSYYGYDYWGQGTQVTVSS,high polyreactivity
2,QVQLVESGGGLVQAGGSLRLSCAASGFTFHTYAMGWYRQAPGKERELVAAIDSSGGITYYADSVKGRFTISRDTAKNTVYLQMNSLKPEDTAVYYCAAVFLLFGFEWSYDYWGQGTQVTVSS,low polyreactivity
3,QVQLVESGGGLVQAGGSLRLSCAASGFTFHYNAMGWYRQAPGKERELVAAITSGGSTYYADSVKGRFTISRDNAKNTVYLQMNSLKPEDTAVYYCNKLYYRYHHNYDYWGQGTQVTVSS,high polyreactivity
4,QVQLVESGGGLVQAGGSLRLSCAASGFTFIDYAMGWSRQAPGKERELVAAITRDGGSTYYADSVKGRFTISRDNANNTVYLQMNRLKPEDTAVYYCATVRRVQHWVWYWLWRYDYWGQGTQVTVSS,high polyreactivity
5,QVQLVESGGGLVQAGGSLRLSCAASGFTFIFNAMGWYREAPGKERELVAAITWGGASTDYADSVKGRFTISRDNAKNTVNLQMKSLKPEDTAVYYCAKDNWDNPRPTSEMDYWGQGTQVTVSS,low polyreactivity
6,QVQLVESGGGLVQAGGSLRLSCAASGFTFIGYAMGWNRQAPGKERELVADITYSGSSTYYADSVKGRFTISRDNAKNTVYFQMNSLKPEDTAVYYCAAEAYYYWFDVVYWGQGSQVTVSS,low polyreactivity
7,QVQLVESGGGLVQAGGSLRLSCAASGFTFIGYAMGWSRPAPGKERELVAAITWRGGRTYYADSVKGRFSISRDNAKNTVYLQMNSLKTEETAVYYCAADGYTVGNSYYWGHGTQVTVSS,high polyreactivity
8,QVQLVESGGGLVQAGGSLRLSCAASGFTFIGYAMGWYRQAPGKERELVAAITQSGGSTFYADSVKGRFTISRDNAKNTVYLQMNSLKPEDTAVYYCNAYRKFRYWGQGTQVTVSS,low polyreactivity
9,QVQLVESGGGLVQAGGSLRLSCAASGFTFIHYGMGWYRQAPGKERELVAAISSRGGRTYYADSVKGRFTISRDNAKNTVYLQMNSLKPEDTAVYYCNRDYAVISYGEYDSWGQGTQVTVSS,high polyreactivity
10,QVQLVESGGGLVQAGGSLRLSCAASGFTFIKNAMGWYRPAPGKERELVAAINSGGRTYYADSVKGRFTISRDNAKNTVYFQMNSLIPEDTAVYYCAARYTRDYYWGQGTQVTVSS,high polyreactivity
11,QVQLVESGGGLVQAGGSLRLSCAASGFTFIKYAMGWYRQAPGKEREFVATISWNGGNTYYADSVKGRFTISRDNAKNTVYLQMNSLKPEDTAVYYCAARVKYRTRGGTVVSYDYWGQGTQVTVSS,high polyreactivity
12,QVQLVESGGGLVQAGGSLRLSCAASGFTFIKYAMGWYRQAPGKEREFVSTISWNGGNTYYADSVKGRFTISRDNAKNTVYLQINSLKPEDTAVYYGAARVKYRTRGGTVVSYDYWGQGTQVTVSS,high polyreactivity
13,QVQLVESGGGLVQAGGSLRLSCAASGFTFINYAMGWYRQAPGKERELVAAISSSSDRTYDADSVKGRFTISRDNAKNTVYLQMNSLKPEDTAVYYCAAYAQKRYYWGQGTQVNVSS,high polyreactivity
14,QVQLVESGGGLVQAGGSLRLSCAASGFTFIRYAMGWYRQAPGKERELVAAIRGTGTSTYYADSVKGRFTISRDNAKNTVYLQMNSLKPEDTAVYYCNKVAGRSPYTRYDYWGQGTQVTVSS,low polyreactivity
15,QVQLVESGGGLVQAGGSLRLSCAASGFTFISNAMGWYRQAPGKERELVAAISSSGGRTYYADSVKGRFTSSRDNAKNTVYLQMNSLKPEDTAVYYCNADRSLLYSRKIEYDYWGQGTQVSVSS,low polyreactivity
16,QVQLVESGGGLVQAGGSLRLSCAASGFTFITNAMGWYRQAPGKERELVAAISSSGGRTYYADSVKGRFTISRDNAKNTVYLQMNSLKPEDTAVYYCNADRSLLYSRKIEYDYWGQGTQVTVSS,low polyreactivity
17,QVQLVESGGGLVQAGGSLRLSCAASGFTFIYAMGWYRQAPGTERELVAAITRSGGSTYYADSVKGRFTISRDNAKNTVYLQMNSLKPEDTAVYYCAAEAVIYYSSYFEYYYWGQGTQVTVSS,high polyreactivity
18,QVQLVESGGGLVQAGGSLRLSCAASGFTFIYYAMGWYRQAPGKERELVAAIRWSGGSTYYADSVKGRFTISRDNAKNTVYLQMNSLKPEDTAVYYCAARAIYKSKYDYWGQGTQVTVSS,high polyreactivity
19,QVQLVESGGGLVQAGGSLRLSCAASGFTFKAYAMGWYRQAPGKERELVAAITYSGGSTYYADSVKGRFTISRDNAKNTVYLQMNSLKPEDTAVYYCNADSDLDLYWKMDYWGQGTQVTVSS,low polyreactivity
20,QVQLVESGGGLVQAGGSLRLSCAASGFTFKFYAMGWYRQAPGKEMEFVAAISGSGGSTYYADSVKRRFTISRDNAKNTVYLQMNSLKPEDTAVYYCAAEVPGKPYRRSRYSFRHDYWGQGTQVTVSS,low polyreactivity
21,QVQLVESGGGLVQAGGSLRLSCAASGFTFKGNTMGWYRQAPGKERELVATITRGGTTYYADSVKGRFTISRDNAKNTVYLQMNSLKPEDTSVYYCAAVVYRPYRWQYDYWGQGTQVTVSS,high polyreactivity
22,QVQLVESGGGLVQAGGSLRLSCAASGFTFKHYAMGWYRQAPGKEREFVAAITGSGGSTYYADSVKGRFTISRDNAKITVYLEMNSLKPEDTAVYYCAASDVSRYRPYRRFDYWGQGTQVTVSS,high polyreactivity

row,Sequence,polyreactivity (PSR sort gate)
1,QVQLVESGGGLVQAGGSLRLSCAASGFTFKKNAMGWYRQAPGKERELVDAISISGGSTYYADSVKGRFTISRDNAKNTVYLQMNSLKPEDTAVYYCAAVYISRNFFGRARGDYWGQGTQVTVSS,low polyreactivity
2,QVQLVESGGGLVQAGGSLRLSCAASGFTFKRNAMGWYRQAPGKERELVAAISWSGSRTYADSVKGRFTISRDNAKNTVYLQMNSLKPEDTAVYYCAASPGRRRRPYASLIRYDYWGQGTQVTVSS,high polyreactivity
3,QVQLVESGGGLVQAGGSLRLSCAASGFTFKRYAMGWYRQAPGKERELVAAISWSGGSTYYADSVKGRFTISRDNAKNTVYLQMNSLKPEDTAVYYCAADGGSTEEYYYWGQGTQVTVST,high polyreactivity
4,QVQLVESGGGLVQAGGSLRLSCAASGFTFKTYVMGWYRQAPGKERELVAAISRRGGSTHYADSVKGRFTISRDNAKNTVYLQMNSLKPEDTAVYYCARRWYSTWWYGYWGQGTQVTVSS,high polyreactivity
5,QVQLVESGGGLVQAGGSLRLSCAASGFTFKWYTMGWYRQAPGKERELVAGISRRGGSTYYADSVKGRFTISRDNAKNTVYLQMNSLKPEDTAVYYCAARYTWRRAGYYYWGQGTQVTVSS,high polyreactivity
6,QVQLVESGGGLVQAGGSLRLSCAASGFTFKYNVMGWYRQAPGKERELVSAISKRGGNTYYADSVKGRFTISRDIAKNTVYLQMNSLKPVDTAVYYCAADPTSPETSGQGYDYWGQGTQVTVSS,high polyreactivity
7,QVQLVESGGGLVQAGGSLRLSCAASGFTFKYYAMGWYRQAPGKERELVAAISRRGTSTYYADSVKGRFTISRYNAKNTVYLQMNCLKPEDTAVYYCSACAYGTYSVYWINEYDYWGQGTQVTVSS,high polyreactivity
8,QVQLVESGGGLVQAGGSLRLSCAASGFTFKYYAMGWYRQAPGKERELVAVISSSGGSTYYADSVKGRFTISRDNAKNTVYLQMNSLKPEDTAVYYCAAELVYRYYVKDADDYWGQGTQVTVSS,low polyreactivity
9,QVQLVESGGGLVQAGGSLRLSCAASGFTFKYYAMGWYRQAPGQERELVAAISSTGSTYYADSVKGRFTISRDNAKNTVYLQTNSLKPEDTAVYYCNKLFEYWGGDNDYWGRGTQVTVSS,high polyreactivity
10,QVQLVESGGGLVQAGGSLRLSCAASGFTFKYYDMGWYRQAPGKERELVAGITWDGGSTTYSDSVKGRFTISRDNAKNTVYLQMNSLKPEDTAVYYCAADVRYTSPFYYYLGAYYYWGQGTQVTVSS,low polyreactivity
11,QVQLVESGGGLVQAGGSLRLSCAASGFTFLINAMGWYRQAPGKERELVAAIRSGGSTNYADSVKGRFTISRDNAKNTVYLQMNSLKPEDTAVYYCAARRYYPYKYRYGYWGQGTQVTVSS,high polyreactivity
12,QVQLVESGGGLVQAGGSLRLSCAASGFTFLIYAMGWYIQAPGKERELVADISYNDDITYYADSVKGRFTISRDNAKNTVYLQMNSLKPEDTAVYYCAADYVNPELDYWGQGTQVTVSS,low polyreactivity
13,QVQLVESGGGLVQAGGSLRLSCAASGFTFLNNTMGWYRQAPGKERELVAAITSSGDRTYYADSVKGRFTISRDNAKNTVYLQMNSLKPEDTAVYYCAADWAYYVASYLYYTFDYWGQGTQVTVSS,low polyreactivity
14,QVQLVESGGGLVQAGGSLRLSCAASGFTFLNYDMGWYRQAPGKERELVAAISRSDGITYYADSVKGRFTISRDNAKNSVYLHMNSLKPEDTAVYYCAAERDTPVGVPGYEYYYWGQGTQVTVSS,high polyreactivity
15,QVQLVESGGGLVQAGGSLRLSCAASGFTFLRNAMGWYRQAPGKERELVAAINRDGGRTYYADSVKGRFTISRDNAKNTVYLQMNSLKPADTAVYYCATTSQATSGPRRKLYYYWGQGTQVTVSS,high polyreactivity
16,QVQLVESGGGLVQAGGSLRLSCAASGFTFLRNAMGWYRQAPGKERELVAAISRSDRTNYADSVKGRFTISRDNAKNTFYLQMNSLKPEDTAVYYCNARHSYWTGRRVTDDYDYWGQGTQVTVSS,high polyreactivity
17,QVQLVESGGGLVQAGGSLRLSCAASGFTFLTYLMGWYRQAPGKERELVASISGSGGTTYYADSVKGRFTISRDNAKNTVYLQMNSLKPEDTAVYYCAASGRYRRYYKFNYWGQGTQVTVSS,high polyreactivity
18,QVQLVESGGGLVQAGGSLRLSCAASGFTFLVNAMGWYRLAPGKERELVAAISRIGASTYYADSVKVRFTISRDNAKNTVYIQMNSLKPQDTAVNYCAARPWANTYPRRRYDYWGQGTQVTVSS,high polyreactivity
19,QVQLVESGGGLVQAGGSLRLSCAASGFTFLVYAMGWYRQAPGKERELVAGITSGGRTYYADSVKGRFTISRDNAKNTVYLQMNSLKPEDTAVYYCAASRWAYEMNYWGQGSQVTVSS,high polyreactivity
20,QVQLVESGGGLVQAGGSLRLSCAASGFTFLVYVMGWYRQAPGKVRELVAAISSCGSSTYYADSVKGRFTISRDNAKNTVYLQMNSLKPEDTAVYYCAAAPYYSHEYDYWGQGTQVTVSS,low polyreactivity
21,QVQLVESGGGLVQAGGSLRLSCAASGFTFLWNAMGWYRQAPGKERELVAAISSSGGRTYYADSVKGRFTISRDNAKNTVYLLMNSLKPEDTAVYYCARVYSSPYNFGYWGQGTQVTVSS,low polyreactivity
